Source: PMC5748854 (The Journal of Experimental Medicine, 2018)

Biological target: C-PfCSP (recombinant PfCSP C terminus, linker and αTSR subdomains) (Plasmodium falciparum NF54, UniProt P19597)
Experiment: ELISA

B1: 1710 IgG (antibody, V domains shown)
VH: EVQLQESGGGLVKPGGSLRLSCAASGFTFSSYSMNWVRQAPGKGLEWVSSITSSSSYIYYADSVKGRFTISRDNAKNSLYLQMNSLRAEDTAVYYCARDPGIAAADNHWFDPWGQGTLVTVSS
VL: not shown
  binding result: binds
